Experimental data from patent US20140179700A1.

Assays:
[1] = target: myelin basic protein (MBP) (Millipore); test: cell-based or functional assay
[2] = tested on: myelin basic protein (MBP) (Millipore)

Substance | MBP phosphorylation by ERK1/2 from epinephrine-treated SS RBCs compared to ERK1/2 from sham-treated cells (fold) [1] | phosphorylation of MBP by immunoprecipitated ERK1/2 (anti-phosphoMBP immunoblot) [2]
ERK1/2 immunoprecipitated from SS RBCs (enzyme) | 2.1 fold | –
ERK1/2 immunoprecipitated from SS RBCs | – | ERK1/2 immunoprecipitated from sham-treated SS RBCs was capable of phosphorylating MBP to some extent
